According to the supplement of paper PMC7125110:
± gives the standard error. For some of these results: Variants at the floor of the assay were thinned out.

B1: glmS ribozyme (parent)
chain: AUAAAAGCGCCAGAACUACAGAAAUGUAGUUGACGAGGAGGAGGUUUAUCGAAUUUUCGGCGGAUGCCUCCAAA

How the values were obtained:
Conditions in all cases: with glucosamine-6-phosphate
glucosamine-6-phosphate [1] = variants of: B1; test: kcat; higher = faster cleavage; RNA array
Method in brief: (§1)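 A hybridised Cy3 probe tracked barcoded ribozyme variants, transcribed in situ by E. coli RNA polymerase on sequenced MiSeq chips, at 37 °C. The variants received 40 μM to 10 mM glucosamine-6-phosphate in HEPES/KCl/Mg(OAc)2 buffer. kobs came from decay fits and kcat and KM from weighted Michaelis–Menten fits.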

glucosamine-6-phosphate [2] = variants of: B1; test: KM; higher = weaker cofactor use; RNA array
Method in brief: as §1

glucosamine-6-phosphate [3] = variants of: B1; test: self-cleavage kobs at 640 uM GlcN6P; higher = faster cleavage; RNA array
Method in brief: as §1

glucosamine-6-phosphate [4] = variants of: B1; test: self-cleavage kobs at 2500 uM GlcN6P; higher = faster cleavage; RNA array
Method in brief: as §1

glucosamine-6-phosphate [5] = variants of: B1; test: self-cleavage kobs at 10000 uM GlcN6P; higher = faster cleavage; RNA array
Method in brief: as §1

glucosamine-6-phosphate [6] = variants of: B1; test: self-cleavage kobs at 40 uM GlcN6P; higher = faster cleavage; RNA array
Method in brief: as §1

glucosamine-6-phosphate [7] = variants of: B1; test: self-cleavage kobs at 160 uM GlcN6P; higher = faster cleavage; RNA array
Method in brief: as §1

Row | Variant | kcat (glucosamine-6-phosphate [1]) [s⁻¹] | KM (glucosamine-6-phosphate [2]) [µM] | self-cleavage kobs at 640 uM GlcN6P (glucosamine-6-phosphate [3]) [s⁻¹] | self-cleavage kobs at 2500 uM GlcN6P (glucosamine-6-phosphate [4]) [s⁻¹] | self-cleavage kobs at 10000 uM GlcN6P (glucosamine-6-phosphate [5]) [s⁻¹] | self-cleavage kobs at 40 uM GlcN6P (glucosamine-6-phosphate [6]) [s⁻¹] | self-cleavage kobs at 160 uM GlcN6P (glucosamine-6-phosphate [7]) [s⁻¹]
1 | C16U A48C | 0.000297 ± 6.4e-05 | 3910 ± 1700 | 3.07e-05 ± 1.2e-05 | 0.000142 ± 2.4e-05 | 0.000203 ± 3.1e-05 |  | 
2 | C16G C61U C67U | < 1e-05 |  |  |  | < 1e-05 | < 1e-05 | < 1e-05
3 | C16A U47A | 0.000851 ± 0.00014 | 1150 ± 410 | 0.000544 ± 0.00013 | 0.000553 ± 0.00011 | 0.000758 ± 0.00011 |  | 9.46e-05 ± 2.7e-05
4 | C16A U54A | 0.0017 ± 0.00051 | 2150 ± 940 | 0.000351 ± 4.9e-05 | 0.00076 ± 0.00015 | 0.00169 ± 0.00028 | 5.13e-05 ± 1.3e-05 | 0.000136 ± 2.6e-05
5 | C16U C70G | 0.000316 ± 9.7e-05 |  | 0.000186 ± 1.6e-05 | 0.000619 ± 0.00016 | 0.000497 ± 0.00011 | 4.19e-05 ± 6.7e-06 | 9.18e-05 ± 8.2e-06
6 | C16U C58G | 0.000176 ± 1.3e-05 | 1730 ± 350 | 4.29e-05 ± 9.1e-06 | 0.000117 ± 1.6e-05 | 0.000146 ± 1.3e-05 |  | 
7 | A15U G32U C67U | 0.000433 ± 0.00015 |  | 3.29e-05 ± 1.4e-05 | 6.84e-05 ± 1.9e-05 | 0.000204 ± 3.8e-05 |  | 
8 | C16U G32C A52G | 4.34e-05 ± 1.5e-06 | 3600 ± 420 |  |  | 3.19e-05 ± 1.3e-05 |  | 
9 | A15G U54G | 0.0486 ± 0.02 | 2200 ± 1000 | 0.00802 ± 0.0015 | 0.0243 ± 0.0097 | 0.0509 ± 0.011 | 0.000945 ± 8.8e-05 | 0.00385 ± 0.00091
10 | C16G G59A | 1.51e-05 ± 3.3e-06 |  |  |  |  |  | 
11 | C16G A48G | < 1e-05 |  |  |  |  | < 1e-05 | 
12 | C16G A48U | 0.000805 ± 0.0004 |  |  |  | 4.45e-05 ± 9.8e-06 | < 1e-05 | < 1e-05
13 | A15U C16A | 0.00121 ± 9.4e-05 | 2740 ± 310 | 0.000244 ± 2.2e-05 | 0.000544 ± 7e-05 | 0.000959 ± 9.8e-05 |  | 6.19e-05 ± 8.7e-06
14 | A15G U57C C58A | 3.45e-05 ± 4.1e-06 |  |  |  | 3.05e-05 ± 1.1e-05 |  | 
15 | A15G U55G | 0.0139 ± 0.0046 | 683 ± 310 | 0.00997 ± 0.0026 | 0.0187 ± 0.0059 | 0.0118 ± 0.0027 | 0.000914 ± 0.00013 | 0.00183 ± 0.00047
16 | C16G A33G C71U | 1.51e-05 ± 7.7e-07 | 137 ± 30 |  |  | < 1e-05 |  | 

Row | Variant | kcat (glucosamine-6-phosphate [1]) [s⁻¹] | KM (glucosamine-6-phosphate [2]) [µM] | self-cleavage kobs at 640 uM GlcN6P (glucosamine-6-phosphate [3]) [s⁻¹] | self-cleavage kobs at 2500 uM GlcN6P (glucosamine-6-phosphate [4]) [s⁻¹] | self-cleavage kobs at 10000 uM GlcN6P (glucosamine-6-phosphate [5]) [s⁻¹] | self-cleavage kobs at 40 uM GlcN6P (glucosamine-6-phosphate [6]) [s⁻¹] | self-cleavage kobs at 160 uM GlcN6P (glucosamine-6-phosphate [7]) [s⁻¹]
17 | A15U G29U | 0.00358 ± 0.0016 |  |  | 0.0014 ± 0.00028 | 0.00431 ± 0.00044 | 0.000116 ± 1.1e-05 | 0.000217 ± 7.1e-05
18 | A15U C67U | 0.00194 ± 0.00074 |  | 0.000409 ± 3.4e-05 | 0.00189 ± 0.00029 | 0.00167 ± 0.00023 | 5.32e-05 ± 6.3e-06 | 0.000161 ± 1.7e-05
19 | A15U C67G | 0.000167 ± 1.9e-06 | 1030 ± 37 | 6.43e-05 ± 9.7e-06 | 0.000115 ± 1.8e-05 | 0.000153 ± 1.2e-05 |  | 2.34e-05 ± 1.1e-05
20 | C16U C67G C68U | 6.15e-05 ± 1.2e-05 |  | 7.27e-05 ± 2.2e-05 | 6.31e-05 ± 2.8e-05 | 5.02e-05 ± 1.9e-05 |  | 
21 | C16G U54C | 0.00528 ± 0.0015 | 3350 ± 1400 | 0.000745 ± 0.00019 | 0.00247 ± 0.00064 | 0.00397 ± 0.00058 | 9.28e-05 ± 1.6e-05 | 0.000157 ± 5.6e-05
22 | A15G U49A | 1.35e-05 ± 1.2e-06 | 1230 ± 550 |  |  |  |  | < 1e-05
23 | A15U U47C | 0.00038 ± 5e-05 | 862 ± 310 | 0.00024 ± 7.3e-05 | 0.00036 ± 5e-05 | 0.000325 ± 3.4e-05 |  | 5.24e-05 ± 1.3e-05
24 | A15U U47G | 0.000703 ± 0.00012 | 1160 ± 360 | 0.000238 ± 2.7e-05 | 0.000473 ± 5.8e-05 | 0.000653 ± 7.7e-05 | 5.1e-05 ± 1.1e-05 | 8.04e-05 ± 1.3e-05
25 | C16U C34A C50G U56C | 1.31e-05 ± 1.9e-06 |  |  |  |  |  | 
26 | A15U U54G | 0.00446 ± 0.00053 | 1730 ± 330 | 0.00189 ± 0.00075 | 0.00279 ± 0.00048 | 0.00368 ± 0.0005 | 8.2e-05 ± 2.2e-05 | 0.000411 ± 6.8e-05
27 | A15U U54C | 0.00568 ± 0.0015 | 1560 ± 660 | 0.00189 ± 0.0003 | 0.00297 ± 0.00042 | 0.00553 ± 0.00066 | 0.000186 ± 2.3e-05 | 0.000292 ± 0.0001
28 | C16A C67G | 4.14e-05 ± 5.2e-06 |  | 3.73e-05 ± 1.5e-05 | 2.82e-05 ± 1.1e-05 | 4.37e-05 ± 8e-06 |  | 
29 | C16G C70G | 5.91e-05 ± 5.2e-06 |  | 5.48e-05 ± 9.9e-06 | 6.29e-05 ± 9.7e-06 | 5.09e-05 ± 9.5e-06 |  | 
30 | C16G C70A | 3.75e-05 ± 1.5e-05 |  |  | 6.29e-05 ± 1.4e-05 | 2.51e-05 ± 1.1e-05 |  | 
31 | A15G U69A | 0.000201 ± 4.3e-05 |  | 0.000137 ± 1.8e-05 | 0.000264 ± 5.2e-05 | 0.000312 ± 4.6e-05 | 6.42e-05 ± 9.6e-06 | 0.000145 ± 1.7e-05
